{
  "source": "paper PMC10440358",
  "about": "(Biochemistry and Biophysics Reports, 2023)",
  "data": [
    {"biological_target": "the molecule itself", "experiment": "SEC", "values": [
      {"protein": "Human tryptophan hydroxylase 2, full-length wild type (enzyme, UniProt Q8IWU9 1-490, looked up) MQPAMMMFSSKYWARRGFSLDSAVPEEHQLLGSSTLNKPNSGKNDDKGNKGSSKREAATESGKTAVVFSLKNEVGGLVKALRLFQEKRVNMVHIESRKSRRRSSEVEIFVDCECGKTEFNELIQLLKFQTTIVTLNPPENIWTEEEELEDVPWFPRKISELDKCSHRVLMYGSELDADHPGFKDNVYRQRRKYFVDVAMGYKYGQPIPRVEYTEEETKTWGVVFRELSKLYPTHACREYLKNFPLLTKYCGYREDNVPQLEDVSMFLKERSGFTVRPVAGYLSPRDFLAGLAYRVFHCTQYIRHGSDPLYTPEPDTCHELLGHVPLLADPKFAQFSQEIGLASLGASDEDVQKLATCYFFTIEFGLCKQEGQLRAYGAGLLSSIGELKHALSDKACVKAFDPKTTCLQECLITTFQEAYFVSESFEEAKEKMRDFAKSITRPFSVYFNPYTQSIEILKDTRSIENVVQDLRSDLNTVCDALNKMNQYLGI", "stoichiometry N": 4},
      {"protein": "Human tryptophan hydroxylase 2, full-length A328V variant (rs2887147) (enzyme, UniProt Q8IWU9 1-490, looked up) MQPAMMMFSSKYWARRGFSLDSAVPEEHQLLGSSTLNKPNSGKNDDKGNKGSSKREAATESGKTAVVFSLKNEVGGLVKALRLFQEKRVNMVHIESRKSRRRSSEVEIFVDCECGKTEFNELIQLLKFQTTIVTLNPPENIWTEEEELEDVPWFPRKISELDKCSHRVLMYGSELDADHPGFKDNVYRQRRKYFVDVAMGYKYGQPIPRVEYTEEETKTWGVVFRELSKLYPTHACREYLKNFPLLTKYCGYREDNVPQLEDVSMFLKERSGFTVRPVAGYLSPRDFLAGLAYRVFHCTQYIRHGSDPLYTPEPDTCHELLGHVPLLVDPKFAQFSQEIGLASLGASDEDVQKLATCYFFTIEFGLCKQEGQLRAYGAGLLSSIGELKHALSDKACVKAFDPKTTCLQECLITTFQEAYFVSESFEEAKEKMRDFAKSITRPFSVYFNPYTQSIEILKDTRSIENVVQDLRSDLNTVCDALNKMNQYLGI", "stoichiometry N": 4},
      {"protein": "NΔ150-hTPH2, wild type (human tryptophan hydroxylase 2 lacking the N-terminal 150 amino acid regulatory domain) (domain or fragment) not shown", "stoichiometry N": 4},
      {"protein": "NΔ150-hTPH2 A328E (domain or fragment) not shown", "stoichiometry N": 4},
      {"protein": "NΔ150-hTPH2 A328V (domain or fragment) not shown", "stoichiometry N": 4}
    ]}
  ]
}
